# Entries after “also recorded” stand apart in the source; their conditions may differ.
# T1: PLRG1 (Homo sapiens, UniProt O43660)
# T1 construct: using full-length GST-PLRG1 in pull-down experiments with each of the respective CDC5L truncation mutants; made in house; host or cells: E. coli BL21(DE3), vector pGEX-4T1
# T1 sequence (O43660 1-514): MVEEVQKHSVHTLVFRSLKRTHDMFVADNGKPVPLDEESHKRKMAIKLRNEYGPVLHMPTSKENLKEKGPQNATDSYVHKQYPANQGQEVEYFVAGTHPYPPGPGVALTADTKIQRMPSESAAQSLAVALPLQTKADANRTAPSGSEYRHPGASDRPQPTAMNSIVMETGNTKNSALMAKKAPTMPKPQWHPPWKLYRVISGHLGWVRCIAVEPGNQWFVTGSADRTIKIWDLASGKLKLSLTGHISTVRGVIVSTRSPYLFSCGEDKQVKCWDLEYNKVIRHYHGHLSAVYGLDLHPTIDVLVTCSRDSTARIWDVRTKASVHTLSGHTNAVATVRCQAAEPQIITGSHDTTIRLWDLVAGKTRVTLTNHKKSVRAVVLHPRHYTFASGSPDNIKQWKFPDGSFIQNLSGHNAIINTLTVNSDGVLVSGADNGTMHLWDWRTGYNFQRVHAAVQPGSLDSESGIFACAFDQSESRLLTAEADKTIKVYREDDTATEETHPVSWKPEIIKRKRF
# T2: PLRG1 (Homo sapiens, UniProt O43660)
# T2 construct: using full-length GST-PLRG1 in pull-down experiments with each of the respective CDC5L truncation mutants; made in house; host or cells: E. coli BL21(DE3), vector pGEX-4T1
# T2 sequence (O43660 257-396 limits assumed): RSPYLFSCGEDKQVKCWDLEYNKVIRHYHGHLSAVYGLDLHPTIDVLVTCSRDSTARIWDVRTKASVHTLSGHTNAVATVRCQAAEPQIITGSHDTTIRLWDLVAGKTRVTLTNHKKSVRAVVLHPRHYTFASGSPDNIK
# B1: ΔCDC5Lg: CDC5L carboxyl terminal amino acids 706-800, mutant protein from region g (protein, UniProt Q99459 706-800, looked up, fragment)
# chain: EAKRAAKMEKKMKILLGGYQSRAMGLMKQLNDLWDQIEQAHLELRTFEELKKHEDSAIPRRLECLKEDVQRQQEREKELQHRYADLLLEKETLKS
# modifications: His6 tag
# notes: CDC5L carboxyl terminal amino acids 706-800, mutant protein from region g
# What was measured:
# PLRG1 [1] = target: T1, PLRG1; assay: GST pull-down protein binding assay, CDC5L mutants with GST-PLRG1; settings: about 0.2 nmole GST-PLRG1, FIG. 4
# Excerpt: (§1) The in vitro transcription and translation experiments were done with the T7 or SP6 RNA polymerase transcription/translation systems that used rabbit reticulocyte lysate (TNT systems, Promega) and L-[^35S] methionine (Amersham, AG1094) to produce [^35S] labelled proteins according to the manufacturer's recommendations. Aliquots of these reactions were used for protein-protein interaction assays as described below.
# (§2) About 0.2 nmole of the appropriate GST-fusion recombinant protein was mixed with an equimolar amount of hexahistidine tagged bacterially expressed protein or 8-10 μl of the in vitro translation reaction above and incubated in binding buffer (250 mM NaCl, 50 mM HEPES pH 7:9, 2% BSA) at room temperature for 15 minutes. The binding reaction was then added to 25 μl of glutathione sepharose beads or antibody bound protein-G sepharose and mixed at 4° C. for 1-2 hrs. The beads were washed 3-4 times in 1 ml of PBS/0.1% Triton X-100 and resuspended in 25 μl 2×SDS PAGE loading dye before heating at 70° C. for 10 minutes or 95° C. for 5 minutes. Bound proteins were separated on a 10% or 12% SDS PAGE gel after which the gel was fixed in 50% methanol/10% acetic acid for 30 minutes. The fixed gel was then soaked in a fluorographic reagent (Amplify, Amersham) for 30 minutes before drying. Protein bands were detected by autoradiography at −80° C. after 4-16 hrs. For antibody probing, the gels containing proteins from the antibody beads were treated as described above in the SDS-PAGE and Western blotting section.
# (§3) Point mutations generating stop codons were inserted into the cDNAs at approximately 100 amino acids intervals by PCR using the QuikChange site directed mutagenesis kit (Stratagene) according to the manufacturer's instructions. The cDNAs were sequenced to confirm the presence of the appropriate mutations. Regions of the cDNAs involved in binding and overlapping regions were subcloned into the vectors pGEX-4T1 (Amersham-Pharmacia) or pET-30a (Novagen) for use in E. coli expression and protein-protein interaction assays.
# PLRG1 [2] = target: T2, PLRG1; assay: as above; settings: in vitro translated (FIG. 6A) or bacterially expressed His-tagged (FIG. 6B, 6C) proteins
# Excerpt: as §1, §2, §3
molecule,measurement,setting,value
B1,pull-down of in vitro translated CDC5L mutants by full-length GST-PLRG1,PLRG1 [1],pulled down less efficiently
same,pull-down of CDC5L mutants by GST-ΔPLRG1f (amino acids 257-396),PLRG1 [2],will interact; also recorded: will pull-down

# From patent publication US20040253646A1, “Pre-mrna splicing screening assay” (priority 2001, published 2004)
